This series concerns the molecule itself. In words: SEC-MALS.

Results on 1 protein are retold here after paper PMC5018210 (Nature, 2016).

B1: MHV S ectodomain trimer (murine hepatitis virus spike glycoprotein ectodomain, R717S, fused to a GCN4 trimerization motif) (domain or fragment)
chain: YIGDFRCIQLVNSNGANVSAPSISTETVEVSQGLGTYYVLDRVYLNATLLLTGYYPVDGSKFRNLALRGTNSVSLSWFQPPYLNQFNDGIFAKVQNLKTSTPSGATAYFPTIVIGSLFGYTSYTVVIEPYNGVIMASVCQYTICQLPYTDCKPNTNGNKLIGFWHTDVKPPICVLKRNFTLNVNADAFYFHFYQHGGTFYAYYADKPSATTFLFSVYIGDILTQYYVLPFICNPTAGSTFAPRYWVTPLVKRQYLFNFNQKGVITSAVDCASSYTSEIKCKTQSMLPSTGVYELSGYTVQPVGVVYRRVANLPACNIEEWLTARSVPSPLNWERKTFQNCNFNLSSLLRYVQAESLFCNNIDASKVYGRCFGSISVDKFAVPRSRQVDLQLGNSGFLQTANYKIDTAATSCQLHYTLPKNNVTINNHNPSSWNRRYGFNDAGVFGKNQHDVVYAQQCFTVRSSYCPCAQPDIVSPCTTQTKPKSAFVNVGDHCEGLGVLEDNCGNADPHKGCICANNSFIGWSHDTCLVNDRCQIFANILLNGINSGTTCSTDLQLPNTEVVTGICVKYDLYGITGQGVFKEVKADYYNSWQTLLYDVNGNLNGFRDLTTNKTYTIRSCYSGRVSAAFHKDAPEPALLYRNINCSYVFSNNISREENPLNYFDSYLGCVVNADNRTDEALPNCDLRMGAGLCVDYSKSRRAHSSVSTGYRLTTFEPYTPMLVNDSVQSVDGLYEMQIPTNFTIGHHEEFIQTRSPKVTIDCAAFVCGDNTACRQQLVEYGSFCVNVNAILNEVNNLLDNMQLQVASALMQGVTISSRLPDGISGPIDDINFSPLLGCIGSTCAEDGNGPSAIRGRSAIEDLLFDKVKLSDVGFVEAYNNCTGGQEVRDLLCVQSFNGIKVLPPVLSESQISGYTTGATAAAMFPPWSAAAGVPFSLSVQYRINGLGVTMNVLSENQKMIASAFNNALGAIQDGFDATNSALGKIQSVVNANAEALNNLLNQLSNRFGAISASLQEILTRLEAVEAKAQIDRLINGRLTALNAYISKQLSDSTLIKVSAAQAIEKVNECVKSQTTRINFCGNGNHILSLVQNAPYGLYFIHFSYVPISFTTANVSPGLCISGDRGLAPKAGYFVQDDGEWKFTGSSYYYPEPITDKNSVIMSSCAVNYTKAPEVFLNTSIPNPPDFKEELDKWFKNQTSIAPDLSLDFEKLNVTLLDLIKRMKQIEDKIEEIESKQKKIENEIARIKKIKLVPRGSLE
One may read the stoichiometry N as a count of units in the complex or per binding partner. Turning to B1, the “stoichiometry N” value was 3.
